Source: PMC4479245, “The HDAC6/APOBEC3G complex regulates HIV-1 infectiveness by inducing Vif autophagic degradation” (Retrovirology, 2015)
Numbering of substitutions follows the chain as printed. Numbers in names are those of the source.

Legend:
[1] = biological target: T1, HA-dm-HDAC6 (in vitro translated) (human, UniProt Q9UBN7 1-1215, H216A | H611A); experiment: pull-down; 3 μg GST fusion protein immobilised on glutathione-Sepharose beads, 2 μg purified in vitro translated HA-tagged protein, overnight in RIPA buffer at 4°C, three washes; anti-HA blot; details: both partners purified
T1 construct: also called dead-mutant (dm) HDAC6; H216A/H611A; not shown: HA, N-terminal, kept
T1 sequence (looked up): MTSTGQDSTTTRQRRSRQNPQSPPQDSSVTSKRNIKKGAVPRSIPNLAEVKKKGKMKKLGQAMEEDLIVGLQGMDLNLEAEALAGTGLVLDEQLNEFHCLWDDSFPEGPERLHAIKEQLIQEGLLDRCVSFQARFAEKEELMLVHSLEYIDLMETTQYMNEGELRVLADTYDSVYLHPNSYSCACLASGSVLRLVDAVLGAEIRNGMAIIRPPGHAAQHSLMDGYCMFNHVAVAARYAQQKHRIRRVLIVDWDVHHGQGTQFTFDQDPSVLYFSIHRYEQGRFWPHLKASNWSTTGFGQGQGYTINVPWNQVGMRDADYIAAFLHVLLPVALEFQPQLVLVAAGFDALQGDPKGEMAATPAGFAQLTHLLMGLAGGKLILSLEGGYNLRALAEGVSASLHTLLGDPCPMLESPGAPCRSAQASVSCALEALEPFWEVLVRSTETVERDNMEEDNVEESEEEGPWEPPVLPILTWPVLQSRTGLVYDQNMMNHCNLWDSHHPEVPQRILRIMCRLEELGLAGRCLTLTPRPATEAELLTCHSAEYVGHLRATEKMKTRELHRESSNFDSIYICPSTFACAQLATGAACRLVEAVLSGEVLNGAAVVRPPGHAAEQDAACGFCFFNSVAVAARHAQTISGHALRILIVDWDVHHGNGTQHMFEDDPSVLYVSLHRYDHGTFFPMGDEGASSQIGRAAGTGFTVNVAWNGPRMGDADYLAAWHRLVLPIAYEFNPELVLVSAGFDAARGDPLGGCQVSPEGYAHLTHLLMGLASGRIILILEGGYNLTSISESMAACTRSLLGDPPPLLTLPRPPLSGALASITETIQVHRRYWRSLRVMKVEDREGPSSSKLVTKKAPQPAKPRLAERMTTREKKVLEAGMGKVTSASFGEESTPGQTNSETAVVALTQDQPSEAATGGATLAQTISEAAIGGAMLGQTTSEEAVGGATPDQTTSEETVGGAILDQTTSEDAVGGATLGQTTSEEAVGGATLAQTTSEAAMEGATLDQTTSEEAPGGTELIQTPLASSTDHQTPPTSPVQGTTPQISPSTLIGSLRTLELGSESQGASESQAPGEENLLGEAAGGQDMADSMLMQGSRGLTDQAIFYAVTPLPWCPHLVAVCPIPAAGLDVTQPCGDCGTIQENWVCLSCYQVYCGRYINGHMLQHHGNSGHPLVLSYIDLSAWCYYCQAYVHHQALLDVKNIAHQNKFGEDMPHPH

[2] = biological target: T2, HA-wt-HDAC6 (in vitro translated) (human, UniProt Q9UBN7 1-1215); experiment: as above; details: both partners purified
T2 construct: also called HA-HDAC6; source: in vitro translated (rabbit-reticulocytes system), purified on anti-HA agarose; not shown: HA, N-terminal, kept
T2 sequence (looked up): T1 sequence (looked up) with A216H, A611H

B1: GST-A3G (natural protein, human, UniProt Q9HC16 1-384, looked up)
chain: MKPHFRNTVERMYRDTFSYNFYNRPILSRRNTVWLCYEVKTKGPSRPPLDAKIFRGQVYSELKYHPEMRFFHWFSKWRKLHRDQEYEVTWYISWSPCTKCTRDMATFLAEDPKVTLTIFVARLYYFWDPDYQEALRSLCQKRDGPRATMKIMNYDEFQHCWSKFVYSQRELFEPWNNLPKYYILLHIMLGEILRHSMDPPTFTFNFNNEPWVRGRHETYLCYEVERMHNDTWVLLNQRRGFLCNQAPHKHGFLEGRHAELCFLDVIPFWKLDLDQDYRVTCFTSWSPCFSCAQEMAKFISKNKHVSLCIFTARIYDDQGRCQEGLRTLAEAGAKISIMTYSEFKHCWDTFVDHQGCPFQPWDGLDEHSQDLSGRLRAILQNQEN
notes: also called wt-A3G; GST-A3G (wt); source: E. coli BL21-DE3, purified on GSH-Sepharose
B1: binds [1]; binds [2].

B2: GST-A3G-C97A (natural protein, human, UniProt Q9HC16 1-384, looked up)
chain: B1 chain with C97A
notes: source: E. coli BL21-DE3, purified on GSH-Sepharose
B2: binds [1]; binds [2].

B3: GST-A3G-D128K (natural protein, human, UniProt Q9HC16 1-384, looked up)
chain: B1 chain with D128K
notes: as for B2
B3: binds [1]; binds [2].

B4: GST-Vif (natural protein)
chain: not shown
notes: as for B2
B4: binds [2].
